Consider three molecules from patent US20090298778A1.

Non-standard residues stand in square brackets, D forms with d. No end group written: not given here. Cit = NC(=O)NCCC[C@H](N)C(=O)O

In test [1] the target is mixture of ACPA-positive IgGs (IgG fraction of an equal-parts mixture of 38 sera from patients suffering from RA having a high serum ACPA titer). Kind of test: competition ELISA: soluble competitor preincubated 2 h with IgG ACPA+ (16 µg/ml), binding to coated citrullinated fibrinogen. Background: In an ELISA, binding on a coated surface is turned into a signal by an enzyme label.

For test [2] the target is unchanged. Description: cell-based or functional assay.

With GP[Cit]VVE[Cit]HQSACKDS [α36-50cit38, 42 peptide], in test [1], the percentage inhibition (plateau value) worked out at 15%.

B1: mixture of α36-50cit38, 42 and β60-74cit60, 72, 74 peptides (peptide)
peptide 1: GP[Cit]VVE[Cit]HQSACKDS
peptide 2: [Cit]PAPPPISGGGY[Cit]A[Cit]-NH2
modifications: also: mixture of two free peptides, not a complex
Regarding B1, the percentage inhibition (plateau value) in test [1] was determined as 70%.

B2: β60-74cit60, 72, 74 peptide (peptide)
peptide: [Cit]PAPPPISGGGY[Cit]A[Cit]-NH2
modifications: N-terminus assumed
SMILES: CC[C@H](C)[C@H](NC(=O)[C@@H]1CCCN1C(=O)[C@@H]1CCCN1C(=O)[C@@H]1CCCN1C(=O)[C@H](C)NC(=O)[C@@H]1CCCN1C(=O)[C@@H](N)CCCNC(N)=O)C(=O)N[C@@H](CO)C(=O)NCC(=O)NCC(=O)NCC(=O)N[C@@H](Cc1ccc(O)cc1)C(=O)N[C@@H](CCCNC(N)=O)C(=O)N[C@@H](C)C(=O)N[C@@H](CCCNC(N)=O)C(N)=O
Turning to B2, in test [2], the amount of TNF-α secreted by macrophages; peptide at 0.8 mg/ml as competitor of IC formation on coated citrullinated fibrinogen was determined as 40 pg/mL and the amount of TNF-α secreted by macrophages; peptide at 4 mg/ml as competitor of IC formation on coated citrullinated fibrinogen was less than 20 pg/mL. For the same molecule, the percentage inhibition (plateau value) in test [1] came out at 60%.
